Test system: GAL4(1-147)-VP16 (Saccharomyces cerevisiae / herpes simplex virus?)
Conditions: in vitro transcription stimulation with purified holoenzyme, factor a, TBP; 10-fold in nuclear extract

**Q.** How did the activity turn out when pGAL4CG- (+GAL4 site template) was run?
**A.** Its activity is 5 fold.

— patent publication US6214588
